# B1: ESRRG (parent)
# chain: YSCPATNECEITKRRRKSCQACRF
# Variants of: B1
# Test: protein stability index of a GFP-peptide fusion (GPS, HEK-293T) (PSI 1-6); higher = more stable
# Conditions: c terminus: a fixed tail appended
# 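Note: lentivirally expressed fusions sorted by FACS into six bins by GFP to DsRed ratio, PSI derived from sequencing read proportions per bin multiplied by bin number.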
row,Variant,protein stability index
1,Y1Q,4.19
2,Y1G,4.02
3,Y1V,3.93
4,Y1W,3.11
5,Y1M,4.2
6,Y1C,4.88
7,Y1T,4.35
8,Y1D,4.05
9,Y1F,3.36
10,Y1P,4.32
11,Y1I,3.6
12,Y1K,3.92
13,R23W,2.09
14,R23Y,3.3
15,R23F,2.33
16,R23N,3.92
17,R23H,2.96
18,R23D,3.88
19,R23P,3.7
20,R23Q,3.69
21,R23V,2.46
22,R15S,3.48
23,R15W,2.81
24,R15M,2.96
25,R15E,3.37
26,R15G,3.91

row,Variant,protein stability index
1,R15P,3.28
2,R15L,2.79
3,R15D,4.01
4,R15A,3.33
5,R16I,3.31
6,R16P,3.24
7,R16L,2.92
8,R16F,2.92
9,R16Y,3
10,R16T,3.96
11,R16E,3.63
12,R16W,3.06
13,R16Q,3.66
14,R16D,3.75
15,A21N,3.41
16,A21P,3.29
17,A21D,3.49
18,A21Y,3.16
19,A21V,3.2
20,A21I,2.54
21,A21C,3.66
22,A21Q,3.29
23,A21T,3.47
24,A21M,2.46
25,A21G,3.44
26,A21H,4.06

row,Variant,protein stability index
1,I11H,4.47
2,I11E,3.95
3,I11M,3.14
4,I11K,3.25
5,I11Y,3.04
6,I11G,3.47
7,I11C,3.83
8,I11L,2.88
9,I11V,3.25
10,I11R,3.37
11,I11A,3.39
12,C3K,3.83
13,C3V,4.16
14,C3Y,3.81
15,C3E,4.09
16,C3T,3.99
17,C3N,3.79
18,C3W,2.83
19,C3M,3.55
20,C3F,3.12
21,C3L,3.53
22,C3S,3.56
23,C3H,2.7
24,C3G,3.44
25,C3D,3.72
26,C3Q,3.62

row,Variant,protein stability index
1,P4G,2.93
2,P4Q,3.11
3,P4C,2.92
4,P4M,2.76
5,P4D,3.48
6,T6N,4.04
7,T6V,3.1
8,T6S,3.1
9,T6K,3.72
10,T6Y,2.29
11,T6C,3.76
12,T6L,3.1
13,T6H,3.65
14,E10H,3.08
15,E10Y,2.39
16,E10K,3.41
17,E10T,3.27
18,E10W,2.22
19,E10M,2.9
20,E10G,3.23
21,E10P,3.09
22,E10N,3.41
23,E10V,2.66
24,C19L,3.14
25,C19P,3.35
26,C19M,3.42

row,Variant,protein stability index
1,C19H,3.69
2,C19A,3.83
3,C19K,3.94
4,C19V,3.27
5,C19N,3.82
6,C19D,4.09
7,C19G,3.55
8,C19I,2.94
9,E8I,2.87
10,E8T,3.25
11,E8K,3.14
12,E8Y,2.32
13,E8D,2.92
14,E8Q,3.52
15,E8W,1.96
16,E8V,3.05
17,E8A,3.46
18,E8M,2.88
19,K17S,3
20,K17G,3.51
21,K17A,3.17
22,K17P,2.9
23,K17R,3.31
24,K17C,4.5
25,C22T,3.58
26,C22P,3.86

row,Variant,protein stability index
1,C22H,3.5
2,C22K,3.97
3,C22Q,3.67
4,C22A,3.47
5,C22I,3.42
6,K13Y,2.78
7,K13R,3.64
8,K13V,3.59
9,K13H,3.44
10,K13Q,3.45
11,K13P,3.46
12,K13T,3.2
13,K13W,2.52
14,C9L,3.08
15,C9F,3.32
16,C9H,3.68
17,C9D,3.4
18,C9G,3.82
19,C9K,3.91
20,C9S,3.66
21,C9W,2.54
22,R14N,3.63
23,R14M,3.09
24,R14V,3.03
25,R14A,3.51
26,R14F,3.19

row,Variant,protein stability index
1,A5G,3.58
2,A5V,3.03
3,A5W,1.51
4,A5R,2.89
5,A5Y,3.05
6,A5H,3.73
7,A5M,3
8,A5K,3.36
9,A5D,3.38
10,T12Q,3.25
11,T12A,3.32
12,T12I,2.69
13,T12W,2.31
14,T12D,3.74
15,T12S,3.46
16,T12C,3.85
17,T12V,3.33
18,T12E,3.75
19,T12Y,2.69
20,Q20I,2.2
21,Q20R,3.49
22,Q20P,3.39
23,Q20C,2.67
24,Q20Y,2.81
25,Q20S,3.02
26,Q20H,2.67

row,Variant,protein stability index
1,Q20T,2.93
2,Q20K,3.92
3,Q20V,2.78
4,Q20F,1.91
5,Q20G,3.53
6,S2V,2.23
7,S2D,3.87
8,S2A,2.1
9,S2G,3.58
10,S2N,3.4
11,S2R,4.17
12,S2L,2.96
13,S2C,2.52
14,S2E,4.1
15,S2F,3
16,S18D,3.6
17,S18Q,3.6
18,S18V,3.08
19,S18P,3.66
20,S18A,3.58
21,S18Y,2.87
22,S18T,3.59
23,S18R,3.8
24,F24G,4.18
25,F24V,4
26,F24T,4.12

row,Variant,protein stability index
1,F24Y,3.53
2,F24K,4.41
3,F24D,4.07
4,F24Q,3.7
5,F24N,4.28
6,F24S,3.89
7,F24C,3.62
8,N7Y,2.06
9,N7T,3.61
10,N7E,3.19
11,N7V,3.14
12,N7G,3.29
13,N7P,3.55
14,N7K,3.57
15,N7D,3.31
16,N7R,3.56
17,N7S,3.01
18,N7I,2.83
